According to PMC4432619, “The structure of FMNL2–Cdc42 yields insights into the mechanism of lamellipodia and filopodia formation” (Nature Communications, 2015):

B1: FMNL1NCC (1–458, Δ172–198) (domain or fragment, human, UniProt O95466 1-458, looked up)
chain: MGNAAGSAEQPAGPAAPPPKQPAPPKQPMPAAGELEERFNRALNCMNLPPDKVQLLSQYDNEKKWELICDQERFQVKNPPAAYIQKLKSYVDTGGVSRKVAADWMSNLGFKRRVQESTQVLRELETSLRTNHIGWVQEFLNEENRGLDVLLEYLAFAQCSVTYDMESTDNGSRHLTIKLTPAHSRKALRNSRIVSQKDDVHVCIMCLRAIMNYQSGFSLVMNHPACVNEIALSLNNKNPRTKALVLELLAAVCLVRGGHDIILAAFDNFKEVCGEQHRFEKLMEYFRNEDSNIDFMVACMQFINIVVHSVENMNFRVFLQYEFTHLGLDLYLERLRLTESDKLQVQIQAYLDNIFDVGALLEDTETKNAVLEHMEELQEQVALLTERLRDAENESMAKIAELEKQLSQARKELETLRERFSESTAMGPSRR
notes: also called FMNL1NCC(Δ172–198); FMNL1 (1–458, Δ172–198); source: E. coli, purified (GSH Sepharose, TEV cleavage, gel filtration); not shown: GST, N-terminal, cleaved
B2: Cdc42 (1–179) (domain or fragment)
chain: not shown
notes: Loaded with the non-hydrolysable GTP analogue GppNHp and Mg2+ in all rows written here; also called Cdc42·GppNHp; active Cdc42; source: E. coli, GST fusion, purified; nucleotide exchanged for GppNHp
B3: Full-length, recombinant FMNL1 protein (natural protein, human, UniProt O95466 1-1100, looked up)
chain: MGNAAGSAEQPAGPAAPPPKQPAPPKQPMPAAGELEERFNRALNCMNLPPDKVQLLSQYDNEKKWELICDQERFQVKNPPAAYIQKLKSYVDTGGVSRKVAADWMSNLGFKRRVQESTQVLRELETSLRTNHIGWVQEFLNEENRGLDVLLEYLAFAQCSVTYDMESTDNGASNSEKNKPLEQSVEDLSKGPPSSVPKSRHLTIKLTPAHSRKALRNSRIVSQKDDVHVCIMCLRAIMNYQSGFSLVMNHPACVNEIALSLNNKNPRTKALVLELLAAVCLVRGGHDIILAAFDNFKEVCGEQHRFEKLMEYFRNEDSNIDFMVACMQFINIVVHSVENMNFRVFLQYEFTHLGLDLYLERLRLTESDKLQVQIQAYLDNIFDVGALLEDTETKNAVLEHMEELQEQVALLTERLRDAENESMAKIAELEKQLSQARKELETLRERFSESTAMGPSRRPPEPEKAPPAAPTRPSALELKVEELEEKGLIRILRGPGDAVSIEILPVAVATPSGGDAPTPGVPTGSPSPDLAPAAEPAPGAAPPPPPPLPGLPSPQEAPPSAPPQAPPLPGSPEPPPAPPLPGDLPPPPPPPPPPPGTDGPVPPPPPPPPPPPGGPPDALGRRDSELGPGVKAKKPIQTKFRMPLLNWVALKPSQITGTVFTELNDEKVLQELDMSDFEEQFKTKSQGPSLDLSALKSKAAQKAPSKATLIEANRAKNLAITLRKGNLGAERICQAIEAYDLQALGLDFLELLMRFLPTEYERSLITRFEREQRPMEELSEEDRFMLCFSRIPRLPERMTTLTFLGNFPDTAQLLMPQLNAIIAASMSIKSSDKLRQILEIVLAFGNYMNSSKRGAAYGFRLQSLDALLEMKSTDRKQTLLHYLVKVIAEKYPQLTGFHSDLHFLDKAGSVSLDSVLADVRSLQRGLELTQREFVRQDDCMVLKEFLRANSPTMDKLLADSKTAQEAFESVVEYFGENPKTTSPGLFFSLFSRFIKAYKKAEQEVEQWKKEAAAQEAGADTPGKGEPPAPKSPPKARRPQMDLISELKRRQQKEPLIYESDRDGAIEDIITVIKTVPFTARTGKRTSRLLCEASLGEEMPL
notes: also called full-length FMNL1; source: expressed from insect cells

How the values were obtained:
[1] = biological target: the molecule itself; assay: crystal structure; complexes formed by equimolar mixing of the FMNL fragment with GppNHp-loaded Cdc42 (1–179) in high salt buffer and overnight dialysis at 277 K into 20 mM Tris/HCl pH 8.0, 150 mM NaCl, 5 mM MgCl2, 1 mM DTE; hanging drop vapour diffusion at 293 K
[2] = biological target: T1, FMNL2N(Δloop) (residues 1–379, Δaa 144–218) (human, UniProt Q96PY5 1-379, Δaa 144–218); assay: ITC; GppNHp-loaded GTPase at 500 μM injected from the syringe into 50 μM FMNL in the cell; 20 mM Tris/HCl pH 8, 150 mM NaCl, 5 mM MgCl2, 1 mM DTE, 298 K; MicroCal iTC200; conditions: both partners purified
T1 construct: source: E. coli, purified (GSH Sepharose, TEV cleavage, gel filtration); not shown: GST, N-terminal, cleaved
T1 sequence (Q96PY5 other isoform, or with tags, fused parts or gaps Δaa 144–218 | Δaa 144–218 | mutant): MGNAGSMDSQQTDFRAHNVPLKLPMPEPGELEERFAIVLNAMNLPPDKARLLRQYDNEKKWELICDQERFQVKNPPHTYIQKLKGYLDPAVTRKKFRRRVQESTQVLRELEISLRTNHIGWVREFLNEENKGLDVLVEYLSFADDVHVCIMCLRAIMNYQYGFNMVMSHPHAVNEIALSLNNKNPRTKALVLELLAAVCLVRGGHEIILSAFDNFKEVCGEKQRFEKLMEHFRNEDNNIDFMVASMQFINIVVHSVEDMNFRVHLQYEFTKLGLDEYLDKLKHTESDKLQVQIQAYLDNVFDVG

[3] = biological target: myrFMNL2N (myristoylated FMNL2N, residues 2–379) (human, UniProt Q96PY5 2-379, N-terminal myristoylation (myrFMNL2N)); assay: ITC; Cdc42·GppNHp titrated to myrFMNL2N at liposomes; 25 °C; conditions: both partners purified
myrFMNL2N (myristoylated FMNL2N, residues 2–379), sequence (Q96PY5 2-379): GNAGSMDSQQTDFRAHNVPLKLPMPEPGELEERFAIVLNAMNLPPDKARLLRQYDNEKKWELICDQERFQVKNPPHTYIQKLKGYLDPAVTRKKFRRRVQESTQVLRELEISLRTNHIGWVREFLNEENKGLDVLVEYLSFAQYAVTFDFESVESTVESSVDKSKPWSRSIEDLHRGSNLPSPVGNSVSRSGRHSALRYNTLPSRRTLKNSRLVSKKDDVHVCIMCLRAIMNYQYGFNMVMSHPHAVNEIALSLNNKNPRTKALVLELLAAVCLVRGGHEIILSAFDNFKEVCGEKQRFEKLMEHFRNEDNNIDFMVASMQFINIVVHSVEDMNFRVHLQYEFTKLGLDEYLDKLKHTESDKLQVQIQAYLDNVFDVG

[4] = biological target: B1; assay: crystal structure; complexes formed by equimolar mixing of the FMNL fragment with GppNHp-loaded Cdc42 (1–179) in high salt buffer and overnight dialysis at 277 K into 20 mM Tris/HCl pH 8.0, 150 mM NaCl, 5 mM MgCl2, 1 mM DTE; hanging drop vapour diffusion at 293 K; conditions: both partners purified
[5] = biological target: the molecule itself; assay: SEC; size exclusion chromatography of full-length recombinant FMNL1 from insect cells; data not shown

Binder: B1
binding result [1]: binds

Binder: B2
Kd [2]: 1.34 ± 0.17 µM
dH [2]: -10 ± 0.167 kJ/mol
stoichiometry N [2]: 1
Kd [3]: 1.79 ± 0.76 µM
dH [3]: -11.6 ± 1.21 kJ/mol
stoichiometry N [3]: 0.93
binding result [4]: binds

Binder: B3
stoichiometry N [5]: 2
